Results taken from patent publication US5849493, “Screening assay for compounds stimulating somatostatin transcription factor -1 binding to an STF-1 binding site” (Research Development Foundation, dated 1997).

What was measured:
[1] = biological target: T1, Pbx1, in vitro translated protein (human, UniProt P40424); assay: gel mobility shift, TSEII probe
Protocol: Deletion endpoints in mutant STF-1 polypeptides are indicated over each lane. For example, Δ1-70 indicates STF-1 polypeptide lacking residues 1–70. Hox 140–215, STF-1 homeodomain polypeptide. […] H.D., STF-1 homeodomain (amino acid residues 140–215). Full length STF-1 protein extends from amino acid residues 1–284.
(§1) Gel mobility shift assays were performed exactly as described previously (20) using 0.1 ng of end-labeled double stranded oligonucleotide whose sequences are presented in FIG. 2C. For off-rate analysis, the TSEII probe was first incubated with the proteins at room temperature for 30 minutes, then a 1000-fold excess of unlabeled TSEII oligonucleotide was added and aliquots were loaded at various time points on a running gel. In supershift assays, TU6 nuclear cell extract was preincubated with 1 µl of Pbx (11) or STF-antiserum (20) for 15 minutes at room temperature before adding the TSEII probe.

[2] = biological target: T1, Pbx1, in vitro translated protein; assay: gel mobility shift, TSEII probe, reticulocyte lysate programmed with PBX RNA
Description: Isl1 H.D., homeodomain of the lim domain factor Isl1. PBX interaction motif-Isl1 H.D., STF-1-Isl1 fusion protein containing STF-1 PBX interaction motif region (amino acid residues 110–138) fused to the Isl1 homeodomain. cdx3 H.D., homeodomain of the pancreatic homeobox protein cdx3 (amino acid residues 143–253). PBX interaction motif-cdx3, fusion protein containing STF-1 PBX interaction motif region (amino acid residues 110–138) fused to the cdx3 homeodomain (amino acid residues 176–253). PBX interaction motif-STF-1, STF-1 polypeptide containing the PBX interaction motif region (110–138) fused to the STF-1 homeodomain (amino acid residues 140–215). STF-1 H.D. STF-1 homeodomain alone without the PBX interaction motif region. […] Cooperativity with PBX tested with homeodomain fusion proteins shown over each lane. Monomeric and heterodimeric complexes as labeled.
as §1

B1: STF-1 homeodomain polypeptide Hox 140-215 (other)
chain: not shown
[1]
  binding result: no binding

B2: GST-PBX interaction motif-cdx3 fusion protein (other)
chain: EEPSRVHLPFPWMKSTKAHAWKSQWAGGALGSQVKTRTKDKYRVVYTDHQRLELEKEFHYSRYITIRRKAELAATLGLSERQVKIWFQNRRAKERKINKKKLQQQQQ
[2]
  binding result: no binding

B3: GST-PBX interaction motif-Isl1 H.D. fusion protein (other)
chain: EEPSRVHLPFPWMKSTKAHAWKSQWAGGAKQPEKTTRVRTVLNEKQLHTLRTCYAANPRPDALMKEQLVEMTGLSPRVIRVWFQNKRCKDKKRSIMMKQLQQ
[2]
  binding result: no binding

B4: GST-cdx3 H.D. fusion protein (other)
chain: PPGPAATGAAEQLSPSGQRRNLCEWMRKPAQPSLGSQVKTRTKDKYRVVYTDHQRLELEKEFHYSRYITIRRKAELAATLGLSERQVKIWFQNRRAKERKINKKKLQQQQQ
[2]
  binding result: no binding

B5: GST-Isl1 H.D. fusion protein (other)
chain: KQPEKTTRVRTVLNEKQLHTLRTCYAANPRPDALMKEQLVEMTGLSPRVIRVWFQNKRCKDKKRSIMMKQLQQ
[2]
  binding result: no binding
